Experimental findings from patent US20180155405A1 (AB INITIO BIOTHERAPEUTICS, published 2018) are described below.

Read-outs that look alike come from different tables or passages of the source.

The target in experiment [1] is T1, CD47 on human cells (CD47+, PDL1+).
T1 construct: These cells also carry human PD-L1; also called HL60-Tg(hPDL1, GFP) cells isolated from the spleen; human CD47+ PDL1+ cells
As to the kind of experiment: in vivo receptor occupancy: NSG mice injected with GV3 on three consecutive days, spleen cells harvested 1 hr and 24 hrs after the last injection, free CD47 read by SIRPA-tetramer binding (FACS) on human HL60-Tg(hPDL1, GFP) cells.

The target in experiment [2] is T2, CD47 on the surface of GFP-luciferase+ DLD1-Tg cells (UniProt Q08722 19-323, limits assumed).
T2 construct: whole, on cells; also called CD47+ cells; CD47+ PD-L1+ cells
T2 sequence (Q08722 19-323 limits assumed): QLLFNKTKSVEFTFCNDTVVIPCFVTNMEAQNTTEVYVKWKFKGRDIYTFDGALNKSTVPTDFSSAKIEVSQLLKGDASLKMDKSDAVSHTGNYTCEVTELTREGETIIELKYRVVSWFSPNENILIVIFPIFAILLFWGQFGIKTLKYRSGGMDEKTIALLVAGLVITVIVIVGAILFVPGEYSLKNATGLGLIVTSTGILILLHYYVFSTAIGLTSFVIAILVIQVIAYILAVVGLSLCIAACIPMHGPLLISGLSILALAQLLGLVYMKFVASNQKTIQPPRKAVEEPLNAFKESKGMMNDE

Experiment [3] addresses T2, CD47 on the surface of GFP-luciferase+ …. As to the kind of experiment: flow cytometry competition on DLD1-Tg(GFP-Luc) cells (CD47+), competitor 50 nM biotinylated SIRP-alpha tetramer.
The target in experiment [4] is T3, biotinylated human CD47 (IgSF domain, residues 1-117, C15G) (human, UniProt Q08722 19-135, biotinylated in vitro with BirA ligase on the biotin acceptor peptide tag).
T3 construct: range 1-117; Captured on a Biacore SA chip; also called biotinylated CD47
T3 sequence (Q08722 other isoform, or with tags, fused parts or gaps C15G C15G limits assumed): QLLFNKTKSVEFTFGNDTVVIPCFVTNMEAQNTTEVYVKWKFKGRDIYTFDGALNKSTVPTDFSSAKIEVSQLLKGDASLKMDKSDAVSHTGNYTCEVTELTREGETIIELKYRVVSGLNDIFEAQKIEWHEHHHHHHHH
Put plainly: SPR (Biacore T100), biotinylated CD47 on SA chip, 1:1 Langmuir model.

The target of experiment [5] is T4, CD47 on mouse splenocytes (mouse, UniProt Q61735).
T4 construct: cell surface, full length; also called % occupied CD47
T4 sequence (receptor on cells, looked up): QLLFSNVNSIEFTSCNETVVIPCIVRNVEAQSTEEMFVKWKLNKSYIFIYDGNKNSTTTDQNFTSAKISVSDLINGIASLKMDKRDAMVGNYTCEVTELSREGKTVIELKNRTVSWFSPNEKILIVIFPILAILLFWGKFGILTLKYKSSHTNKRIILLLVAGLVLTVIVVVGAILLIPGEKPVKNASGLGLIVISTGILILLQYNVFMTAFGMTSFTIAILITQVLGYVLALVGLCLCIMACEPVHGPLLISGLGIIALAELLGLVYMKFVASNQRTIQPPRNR
As to the kind of experiment: in vivo receptor occupancy: NSG mice injected with GV3 on three consecutive days, spleen cells harvested 1 hr and 24 hrs after the last injection, free CD47 read by SIRPA-tetramer binding (FACS) on mouse splenocytes.

The target of another experiment is T5, human PD-L1 (human, UniProt Q9NZQ7 19-239, limits assumed, biotinylated in Examples 4 and 5).
T5 construct: also called biotinylated human PD-L1
T5 sequence (Q9NZQ7 19-239 limits assumed): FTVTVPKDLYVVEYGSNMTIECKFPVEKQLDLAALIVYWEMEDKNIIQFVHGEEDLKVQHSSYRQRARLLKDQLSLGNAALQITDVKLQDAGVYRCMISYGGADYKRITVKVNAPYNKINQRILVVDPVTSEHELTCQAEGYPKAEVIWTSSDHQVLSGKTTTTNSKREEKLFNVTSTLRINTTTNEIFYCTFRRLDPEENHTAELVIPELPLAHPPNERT
As to the kind of experiment: SPR, HGV3 held on chip-captured biotinylated human CD47, then PD-L1 injected; the PD-L1 concentration is not shown.

The target in experiment [6] is T6, CD47 on total splenic cells.
T6 construct: also called % occupied CD47
T6 sequence (Q61735 whole entry, species assumed, looked up): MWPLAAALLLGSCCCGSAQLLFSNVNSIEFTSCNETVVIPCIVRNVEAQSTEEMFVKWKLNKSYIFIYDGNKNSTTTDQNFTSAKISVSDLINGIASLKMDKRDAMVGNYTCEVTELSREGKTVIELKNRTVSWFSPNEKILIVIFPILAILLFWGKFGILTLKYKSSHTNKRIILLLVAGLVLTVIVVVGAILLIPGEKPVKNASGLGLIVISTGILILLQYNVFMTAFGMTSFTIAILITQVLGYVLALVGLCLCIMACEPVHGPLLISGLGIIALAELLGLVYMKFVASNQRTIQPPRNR
Put plainly: in vivo receptor occupancy: NSG mice injected with GV3 on three consecutive days, spleen cells harvested 1 hr and 24 hrs after the last injection, free CD47 read by SIRPA-tetramer binding (FACS).

T1 sequence (chain, as listed by the source limits assumed): as the sequence (Q08722 19-323 limits assumed) above

B1: SIRP-gamma variant GV3 (designed binder)
chain: EEELQIIQPEKLLLVTVGKTATLHCTITSLFPVGPIQWFRGVGPGRVLIYNQKDGHFPRVTTVSDGTKRNNMDFSIRISSITPADVGTYYCVKFRKGSPEDVEFKSGPGTEMALGAKPSHHHHHHHH
notes: Monomers were made as MBP fusions in E. coli and MBP was removed with 3C protease; also called HGV3; human GV3
For the molecule B1, the RO half-life in experiment [1] is about 30 h; in experiment [5] it was about 5 h; in experiment [6], about 10 h. Moreover, the “IC50 (read off the curve)” value was about 1 nM in experiment [2] and about 0.7 nM in experiment [3]. In experiment [4], this molecule came in with a Kd of 0.092 nM. Also, in experiment [4], the “dissociation half-life T1/2” value was about 0.733 h. The binding result with human PD-L1 was “no binding”.
